Laboratory results taken from patent US20210253725A1 (BIONTECH, published 2021).
Positions count from the first letter of the chain named. Names and notes keep the numbering of the source.

T1: CD27 expressed on the cell surface (HT1080_CD27 cells) (human, UniProt P26842 20-260)
T1 sequence (looked up): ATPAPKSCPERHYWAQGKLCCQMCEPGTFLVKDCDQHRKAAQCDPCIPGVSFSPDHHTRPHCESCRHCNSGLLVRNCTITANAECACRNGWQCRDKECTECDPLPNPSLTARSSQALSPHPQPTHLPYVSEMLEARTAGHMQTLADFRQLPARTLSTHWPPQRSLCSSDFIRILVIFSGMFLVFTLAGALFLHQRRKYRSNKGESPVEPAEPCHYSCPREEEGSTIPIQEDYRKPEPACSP

T2: CD27 protein (His-tagged, Sino Biological Inc. 10039-H08B1) (human, UniProt P26842 20-192)
T2 construct: bought; coated onto ELISA plates; also called human CD27; recombinant protein; not shown: His tag
T2 sequence (looked up): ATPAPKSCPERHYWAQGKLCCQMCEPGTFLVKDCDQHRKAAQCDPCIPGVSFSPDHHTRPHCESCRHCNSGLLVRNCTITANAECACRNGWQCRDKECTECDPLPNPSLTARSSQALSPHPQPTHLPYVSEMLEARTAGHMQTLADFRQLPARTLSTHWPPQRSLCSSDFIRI

B1: P018.S.03.A.H05 (antibody, V domains shown)
VH: QSLEESGGDLVKPGASLTLTCTASGFSFSDRHYMCWVRQAPGKGLEWIGSIYTGKDSIDYASWAKGRFTISKTSSTTVTLQMTSLTAADTATYFCARDLLYGSSSGYLHTWGPGTLVTVSS
VL: DIVMTQTPSSVSEPVGGTVTIKCQASHNIYSNLAWYQQKLGQPPKLLIYYASTLASGVPSRFKGSGSGTEYTLTISDLESDDAATYYCQSAYYGSIDITFGGGTEVVAQ
notes: V regions on human Ig constant parts; also called AB27_63
B2: P018.S.07.A.B06 (antibody, V domains shown)
VH: QEQLVESGGDLVKPGTSLTLTCKASGLDFSSTPYMCWVRQAPGKGLEWIACIYTGSVIYTYYASWAKDRFTISKISSTSVTLQMTSLTVADTATYFCARSPAGYAAYGYGGFNLWGPGTLVTVSS
VL: AIEMTQTPFSVSAAVGGTVTINCQASQNIYNNLAWYQQKPGQPPKLLIYGASTLESGVPSRFEGSGSGTEYTLTISDLESDDAATYYCQSAYYSSSATDMAFGGGTEVVVK
notes: V regions on human Ig constant parts; also called AB27_118
B3: P018.S.08.A.H02 (antibody, V domains shown)
VH: QSLEESGGRLVTPGTPLTLTCTASGFSLSYYYMTWVRQAPGKGLEWIGITGGGGDTYYGTWAKGRFTISKTSTTVDLKMTSPTTEDTATYFCARGTDGAAHTGFALWGQGTLVTVSS
VL: DIVMTQTPASVEAAVGGTVTIKCQASEDISSRLSWYQQKPGQPPKLLIYLASTLASGVPSRFKGSGSGTQFTLTISDLESADAATYYCQSSSYGTSTIYGTFGGGTEVVVK
notes: V regions on human Ig constant parts; also called AB27_142
B4: P018.S.02.A.G03 (antibody, V domains shown)
VH: QSVEESGGRLVTPGTPLTLTCTVSGFSLSSYVMSWVRQAPGKGLEWIGYIDYGGTAYYASWAKGRFTISKTSTTVELKITSPTIEDTATYFCARGGYGGYILVTGLWGPGTLVTVSS
VL: DIVMTQTPASVSEPVGGTVTIKCQASQTIISYLSWYQQKPGQPPKLLIYGASTLASGVPSRFKGSGSVTEYTLTISDLESADAATYYCQTYYGGGPFGNGFGGGTEVVVK
notes: V regions on human Ig constant parts; also called AB27_38
B5: P018.S.02.A.F06 (antibody, V domains shown)
VH: B4 VH with A56P
VL: B4 VL with I2V, T28S, I30S, L33C, K39R, V68G
notes: V regions on human Ig constant parts; also called AB27_36
B6: P018.S.09.A.H04 (antibody, V domains shown)
VH: B4 VH with I50S, S60N, G98D, I101L
VL: B4 VL with T28S, I30S, S34A, G50S, P59S, V68G
notes: V regions on human Ig constant parts; also called AB27_161
B7: P018.S.05.A.E04 (antibody, V domains shown)
VH: QEQLEESGGDLVKPEGSLTLTCTASGFSFSSYWICWVRQAPGKGLEWIACIATHSGTDFYASWAKGRFTISKTSSTTVTLQMTSLTAADTATYFCARDPYGFNGDYFSLWGPGTLVTVSS
VL: ALVMTQTPASVSAAVGGTVTINCQASQSVYNSNYLSWYQQKPGQPPKLLIYKASTLASGVPSRFKGSGSGTQFTLTISGVESDDAATYYCAGYKSYTNDDNGFGGGTEVVVK
notes: V regions on human Ig constant parts; also called AB27_90
B8: P018.S.05.A.C06 (antibody, V domains shown)
VH: QSLEESGGRLVTPGTPLTLTCTASGFSLSNYYITWVRQAPGEGLEWIGTISTAGNTYFASWAKGRFTISRTSTTVDLKMTSPTTEDTATYFCARDGAGDSNYYRNLWGQGTLVTVSS
VL: DIVLTQTPASVEAAVGGTVTIKCQASQSIDRFLAWYQQKPGQPPKLLIVDASTLESGVPSRFSGSGSGTEFTLTISDLESDNAATYYCQQGYSISDIDNVFGGGTEVVVK
notes: V regions on human Ig constant parts; also called AB27_85
B9: P018.S.07.A.F03 (antibody, V domains shown)
VH: B8 VH with K63N
VL: B8 VL
notes: V regions on human Ig constant parts; also called AB27_127
B10: P018.S.06.A.E01 (antibody, V domains shown)
VH: B8 VH with N30S, I33M, A62V, A93T
VL: B8 VL with D1A, V3D, L4M, Q27E, S93A
notes: V regions on human Ig constant parts; also called AB27_104
B11: P018.S.06.A.F01 (antibody, V domains shown)
VH: B8 VH with N30S, I33M
VL: B8 VL with D1A, I2Y, V3D, L4M, Q27E
notes: V regions on human Ig constant parts; also called AB27_107
B12: P018.S.04.A.H04 (antibody, V domains shown)
VH: QSVEESGGRLVTPGTPLTLTCTVSRFSLSTSTMTWVRQAPGKGLEWIGIINGGGSAYYANWAKGRFTISKTSTTVDLKITSPTTEDTATYFCARSYDSYDDIYGTSRLYAFDPWGPGTLVTVSS
VL: AYDMTQTPASVEVAVGGTVTINCQASESIYSNLAWYQQKPGQPPKLLIYRASYLASGVSSRFKGSGSGTQFTLTISGVESADAATYYCQQGYSSSDVDNAFGGGTEVVVK
notes: V regions on human Ig constant parts; also called AB27_79
B13: P018.S.04.A.F04 (antibody, V domains shown)
VH: QSVEESGGRLVTPGTPLTLTCTVSGFSLSNYAMSWVRQAPGKGLEWIGIIYASGTTYYARWAKGRFTISRTSTTVDLKISSPTTEDTATYFCAREYDSYDYAYGSSIYAFDPWGPGTLVTVSS
VL: B12 VL with A9S, E12S, V13A, N22K, P43R, Y53T, T74S, D96N, A100V
notes: V regions on human Ig constant parts; also called AB27_77
B14: P018.S.03.A.C02 (antibody, V domains shown)
VH: B12 VH
VL: B12 VL with A14V, N22S, S31A, D96N, A100S
notes: V regions on human Ig constant parts; also called AB27_44
B15: P018.S.01.A.B04 (antibody, V domains shown)
VH: QEQLEESGGRLVTPGGTLTLTCTASGFSLSSYDMSWVRQAPGKGLEWIGYIWSDGNTDYASWAAGRFTASRASTTVDLKMTSLTTEDTATYFCARGYTGFFLWGPGTLVTVSS
VL: DVVMTQTPSSVSAAVGGTVTIKCQASQSIGSSYLSWYQQKPGQPPKLLIYKTSTLASGVPSRFKGSGSGTEFTLTISDLESDDAATYYCQCTYYGGSWRVAFGGGTEVVVK
notes: V regions on human Ig constant parts; also called AB27_5
B16: P018.S.05.A.H02 (antibody, V domains shown)
VH: B15 VH with S30N
VL: B15 VL with K51E, T52A
notes: V regions on human Ig constant parts; also called AB27_94
B17: P018.S.01.A.D04 (antibody, V domains shown)
VH: B15 VH with S31N
VL: B15 VL with A13T, G17D
notes: V regions on human Ig constant parts; also called AB27_12
B18: P018.S.01.A.G02 (antibody, V domains shown)
VH: B15 VH with S61T
VL: B15 VL
notes: V regions on human Ig constant parts; also called AB27_21
B19: P018.S.01.A.B05 (antibody, V domains shown)
VH: B15 VH with S61T
VL: B15 VL with G96S
notes: V regions on human Ig constant parts; also called AB27_6
B20: P018.S.02.A.C06 (antibody, V domains shown)
VH: QEQLEESGGGLVQPEGSLTLTCKASGIDFSSNYYISWVRQAPGKGLEWIGCIYTGSDDAAYYASWAKGRFTISKTSSTTVTLQMTSLTAADTATYFCAREILYPTNTDSFDLWGPGTLVTVSS
VL: AQVLTQTPSSVSEPVGGIVTINCQASESISSRLAWYQQKPGQPPKLLIYRAATLASGVPSRFKGSGSGTDFTLTISDLESADAATYYCQSYVGASSGGYFFGGGTEVVVK
notes: V regions on human Ig constant parts; also called AB27_32

Target: T1, CD27 expressed on the cell surface …
Assay: cell-based or functional assay
Note: test concentration or dose not given here.

| IL-8, cross-linked by F(ab')2 fragment [abs. corr.] | IL-8 [abs. corr.] | Binder |
| --- | --- | --- |
| 1.39 abs. corr. | 0.401 abs. corr. | B1 |
| 1.07 abs. corr. | 0.218 abs. corr. | B2 |
| 1.91 abs. corr. | 0.328 abs. corr. | B3 |
| 1.48 abs. corr. | -0.061 abs. corr. | B4 |
| 1.73 abs. corr. | 0.094 abs. corr. | B5 |
| 1.4 abs. corr. | 0.274 abs. corr. | B6 |
| 1.33 abs. corr. | 0.813 abs. corr. | B7 |
| 1.11 abs. corr. | 0.539 abs. corr. | B8 |
| 1.41 abs. corr. | 0.444 abs. corr. | B9 |
| 1.55 abs. corr. | 0.525 abs. corr. | B10 |
| 1.08 abs. corr. | 0.405 abs. corr. | B11 |
| 1.98 abs. corr. | 0.579 abs. corr. | B12 |
| 2.49 abs. corr. | 1.6 abs. corr. | B13 |
| 1.58 abs. corr. | 0.373 abs. corr. | B14 |
| 2.12 abs. corr. | 0.582 abs. corr. | B15 |
| 1.9 abs. corr. | 0.369 abs. corr. | B16 |
| 2.2 abs. corr. | 0.175 abs. corr. | B17 |
| 1.88 abs. corr. | 0.848 abs. corr. | B18 |
| 1.88 abs. corr. | 0.453 abs. corr. | B19 |
| 1.59 abs. corr. | 0.418 abs. corr. | B20 |

Target: T2, CD27 protein (His-tagged, Sino …)
Assay: ELISA on coated His-tagged CD27

| ELISA [abs. corr.] | Binder |
| --- | --- |
| 3.36 abs. corr. | B1 |
| 3.35 abs. corr. | B2 |
| 3.58 abs. corr. | B3 |
| 3.13 abs. corr. | B4 |
| 3.24 abs. corr. | B5 |
| 3.36 abs. corr. | B6 |
| 3.35 abs. corr. | B7 |
| 3.35 abs. corr. | B8 |
| 3.53 abs. corr. | B9 |
| 3.35 abs. corr. | B10 |
| 3.4 abs. corr. | B11 |
| 3.46 abs. corr. | B12 |
| 3.35 abs. corr. | B13 |
| 3.36 abs. corr. | B14 |
| 3.36 abs. corr. | B15 |
| 3.47 abs. corr. | B16 |
| 3.4 abs. corr. | B17 |
| 3.67 abs. corr. | B18 |
| 3.5 abs. corr. | B19 |
| 3.37 abs. corr. | B20 |

Target: T1, CD27 expressed on the cell surface …
Assay: cellular binding assay, HT1080_CD27 cells

| Cellular binding assay [RFU] | Binder |
| --- | --- |
| 294 RFU | B1 |
| 372 RFU | B2 |
| 352 RFU | B3 |
| 357 RFU | B4 |
| 294 RFU | B5 |
| 314 RFU | B6 |
| 332 RFU | B7 |
| 351 RFU | B8 |
| 380 RFU | B9 |
| 354 RFU | B10 |
| 310 RFU | B11 |
| 291 RFU | B12 |
| 320 RFU | B13 |
| 317 RFU | B14 |
| 382 RFU | B15 |
| 336 RFU | B16 |
| 341 RFU | B17 |
| 363 RFU | B18 |
| 376 RFU | B19 |
| 348 RFU | B20 |
